Reference: publication PMC9104438, “Application of a Fluorescence Anisotropy-Based Assay to Quantify Transglutaminase 2 Activity in Cell Lysates” (International Journal of Molecular Sciences, 2022)

Target: T1, hFXIIIa (Homo sapiens, UniProt P00488)
T1 sequence (P00488 39-732 limits assumed): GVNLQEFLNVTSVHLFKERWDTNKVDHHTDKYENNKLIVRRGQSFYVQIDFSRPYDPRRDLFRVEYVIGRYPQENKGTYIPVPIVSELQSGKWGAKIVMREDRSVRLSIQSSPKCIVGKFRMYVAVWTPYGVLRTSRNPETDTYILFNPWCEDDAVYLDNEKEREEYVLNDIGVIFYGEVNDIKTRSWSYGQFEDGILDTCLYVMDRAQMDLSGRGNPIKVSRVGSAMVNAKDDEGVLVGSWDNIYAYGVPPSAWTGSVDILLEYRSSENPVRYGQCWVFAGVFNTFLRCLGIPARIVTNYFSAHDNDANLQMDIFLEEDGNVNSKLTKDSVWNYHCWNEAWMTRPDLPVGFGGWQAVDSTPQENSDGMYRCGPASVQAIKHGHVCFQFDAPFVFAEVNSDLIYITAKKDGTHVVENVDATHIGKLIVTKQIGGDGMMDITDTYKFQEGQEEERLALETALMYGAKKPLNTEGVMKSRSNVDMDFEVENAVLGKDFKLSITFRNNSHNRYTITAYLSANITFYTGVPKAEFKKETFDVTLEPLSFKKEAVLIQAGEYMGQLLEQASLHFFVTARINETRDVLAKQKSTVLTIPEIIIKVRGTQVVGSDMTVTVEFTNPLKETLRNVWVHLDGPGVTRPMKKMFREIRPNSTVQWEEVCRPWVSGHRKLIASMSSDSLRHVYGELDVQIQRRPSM
Experiment: FA-based assay, kinetic characterization of acyl donor DMC with R-I-Cad
Assay type: biochemical
Design: purchased Zedira T070
Conditions: hFXIIIa 5 µg/mL, R-I-Cad 0.74 µM, mean (SEM)
Description: For the kinetic characterization of DMC (Figure 1B) in the presence of a fixed concentration of R-I-Cad (0.74 µM), eight different concentrations of DMC (0.3–300 µM) were used (2–3 separate experiments, each performed in duplicate). The corresponding stock solutions of DMC and R-I-Cad were prepared in assay buffer A and DMSO, respectively. […] Values for Km, Ki and Vmax were calculated according to the equation of substrate inhibition (Equation (2)). (2) v=Vmax∗[S]/Km+[S]∗(1+[S]/Ki)

Ki (read-out: Ki (substrate inhibition)): 135 µM
Substance: N,N-dimethylated casein [DMC]
Km: 17.5 µM
Vmax (pH 8.0, 30 °C): 16.0 (1.1) mA mL s^−1 mg^−1
